Test results from the supplement of paper PMC9233669.
This sample holds only a part of the variants without activity.

How the values were obtained:
biotinyl-Trp-oxazolone = experiment: self-aminoacylation, catalytic enhancement (BWO) (fold over background); higher = more active; k-Seq, kA / k0A0; sequences stand for … in GGGAAUGGAUCCACAUCUACGAAUUC…UUCACUGCAGACUUGACGAAGCUG
Summary of the method: (§1)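 Mutagenized RNA pools with a 21-nt variable region (0.43 μM) were reacted with each biotinyl-aminoacyl-oxazolone at 2–1250 μM for 90 minutes at room temperature, in 50 μL HEPES/NaCl/KCl/MgCl2/CaCl2 buffer containing 5% acetonitrile at pH 6.9–7.0. RNA captured on streptavidin was quantified by triplicate qPCR and by Illumina sequencing. The fraction reacted for each sequence was fit to a pseudo-first-order model with bootstrapping, and catalytic enhancement is the median kA divided by the uncatalyzed rate, taken as the low-activity peak of a bimodal Gaussian fit.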

biotinyl-Leu-oxazolone = experiment: self-aminoacylation, catalytic enhancement (BLO) (fold over background); higher = more active; k-Seq, kA / k0A0; sequences stand for … in GGGAAUGGAUCCACAUCUACGAAUUC…UUCACUGCAGACUUGACGAAGCUG
Summary of the method: as §1

biotinyl-Ile-oxazolone = experiment: self-aminoacylation, catalytic enhancement (BIO) (fold over background); higher = more active; k-Seq, kA / k0A0; sequences stand for … in GGGAAUGGAUCCACAUCUACGAAUUC…UUCACUGCAGACUUGACGAAGCUG
Summary of the method: as §1

biotinyl-Met-oxazolone = experiment: self-aminoacylation, catalytic enhancement (BMO) (fold over background); higher = more active; k-Seq, kA / k0A0; sequences stand for … in GGGAAUGGAUCCACAUCUACGAAUUC…UUCACUGCAGACUUGACGAAGCUG
Summary of the method: as §1

biotinyl-Phe-oxazolone = experiment: self-aminoacylation, catalytic enhancement (BFO) (fold over background); higher = more active; k-Seq, kA / k0A0; sequences stand for … in GGGAAUGGAUCCACAUCUACGAAUUC…UUCACUGCAGACUUGACGAAGCUG
Summary of the method: as §1

biotinyl-Val-oxazolone = experiment: self-aminoacylation, catalytic enhancement (BVO) (fold over background); higher = more active; k-Seq, kA / k0A0; sequences stand for … in GGGAAUGGAUCCACAUCUACGAAUUC…UUCACUGCAGACUUGACGAAGCUG
Summary of the method: as §1

Sequence	self-aminoacylation (biotinyl-Trp-oxazolone)	self-aminoacylation (biotinyl-Leu-oxazolone)	self-aminoacylation (biotinyl-Ile-oxazolone)	self-aminoacylation (biotinyl-Met-oxazolone)	self-aminoacylation (biotinyl-Phe-oxazolone)	self-aminoacylation (biotinyl-Val-oxazolone)
AUUCACUUAGGUCCUCGGGUG [Fam2.2 aminoacylation ribozyme variant]	4.66	6.52	3.12	4.58	35.8	2.96
AUUCACUUUGGUCAUCGGGUG [Fam2.2 aminoacylation ribozyme variant]	7.2	9.51	4.75	8.05	65.4	4.71
AUUCAGCUAGGCCAUCGGGUG [Fam2.2 aminoacylation ribozyme variant]	10.1	12.4	6.95	10.1	72.1	6.97
AUUCAGCUAGGUCAUCGAGUG [Fam2.2 aminoacylation ribozyme variant]	1.98	2.86	2.01	2.24	8.78	1.95
AUUCAGCUAGGUCAUCGCGUG [Fam2.2 aminoacylation ribozyme variant]	5.71	6.83	4.48	6.28	54.8	5.79
AUUCAGCUAGGUCAUCGGGCG [Fam2.2 aminoacylation ribozyme variant]	3.83	3.92	2.48	3.2	17.5	2.79
AUUCAGCUAGGUCAUCGGGGG [Fam2.2 aminoacylation ribozyme variant]	2.72	3.48	3.18	2.69	16.7	2.23
AUUCAGCUAGGUCAUCGGGUA [Fam2.2 aminoacylation ribozyme variant]	2.76	3.67	3.18	3.6	29.7	3.3
AUUCAGCUUGGUCAUCGGGUG [Fam2.2 aminoacylation ribozyme variant]	4.05	3.63	2.75	3.5	14	3.37
AUUCAUCGAGGUCAUCGGGUG [Fam2.2 aminoacylation ribozyme variant]	10.1	14.9	7.05	12	83.3	6.97
AUUCAUCUAGGACAUCGGGUG [Fam2.2 aminoacylation ribozyme variant]	3.07	3.59	2.75	3.39	17.3	2.74
AUUCAUCUAGGUAAUCGGGUG [Fam2.2 aminoacylation ribozyme variant]	2.6	4.09	1.95	3.07	19.5	1.73
AUUCAUCUAGGUCAGCGGGUG [Fam2.2 aminoacylation ribozyme variant]	4.36	5.56	3.25	4.17	25.3	3.23
